Source: patent US20250243277A1 (AVACTA LIFE SCIENCES, published 2025)

These binders were tested against T1, human PD-L1-Fc (R&D Systems) (human, UniProt Q9NZQ7 19-239) (assay: soluble Affimer ELISA).
T1 construct: Bought from R&D Systems; Biotinylated in-house for the phage selection; also called huPD-L1-Fc; human PD-L1-Fc antigen; not shown: Fc part of the bought fusion
T1 sequence (Q9NZQ7 19-239 limits assumed): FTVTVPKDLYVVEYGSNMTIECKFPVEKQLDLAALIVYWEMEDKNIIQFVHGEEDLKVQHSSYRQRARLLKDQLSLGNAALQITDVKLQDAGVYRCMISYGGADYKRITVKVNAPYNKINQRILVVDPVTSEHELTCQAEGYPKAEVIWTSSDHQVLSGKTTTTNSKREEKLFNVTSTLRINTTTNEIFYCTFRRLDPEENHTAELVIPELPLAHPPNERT

| Binder | binding result |
| --- | --- |
| Clone 33 (designed binder, His-tagged) MIPGGLSEAKPATPEIQEIVDKVKPQLEEKTGETYGKLEAVQYKTQVVNQPQPPWIRGTNYYIKVRAGDNKYMHLKVFKSLNWNSPNLTWEDLVLTGYQVDKNKDDELTGF | binds |
| Clone 35 (designed binder, His-tagged) MIPGGLSEAKPATPEIQEIVDKVKPQLEEKTGETYGKLEAVQYKTQVVKYETHFYYEGTNYYIKVRAGDNKYMHLKVFKSLPKRWAYNAYEDLVLTGYQVDKNKDDELTGF | binds |
| Clone 37 (designed binder, His-tagged) MIPGGLSEAKPATPEIQEIVDKVKPQLEEKTGETYGKLEAVQYKTQVVHHFAEVKWYGTNYYIKVRAGDNKYMHLKVFKSLKITGSTLTFEDLVLTGYQVDKNKDDELTGF | binds |
| Clone 39 (designed binder, His-tagged) MIPGGLSEAKPATPEIQEIVDKVKPQLEEKTGETYGKLEAVQYKTQVVEIRPVWDWSGTNYYIKVRAGDNKYMHLKVFKSLFDHESKPTAEDLVLTGYQVDKNKDDELTGF | binds |
| Clone 4 (designed binder, His-tagged) MIPGGLSEAKPATPEIQEIVDKVKPQLEEKTGETYGKLEAVQYKTQVVFQTWDHAWTGTNYYIKVRAGDNKYMHLKVFKSLFAAETQQYYEDLVLTGYQVDKNKDDELTGF | binds |
| Clone 41 (designed binder, His-tagged) MIPGGLSEAKPATPEIQEIVDKVKPQLEEKTGETYGKLEAVQYKTQVVGTRDEWHWVGTNYYIKVRAGDNKYMHLKVFKSLFVKDDGRVDEDLVLTGYQVDKNKDDELTGF | binds |
| Clone 42 (designed binder, His-tagged) MIPGGLSEAKPATPEIQEIVDKVKPQLEEKTGETYGKLEAVQYKTQVVIQHIWWDFVGTNYYIKVRAGDNKYMHLKVFKSLSRLEPAGHQEDLVLTGYQVDKNKDDELTGF | binds |
| Clone 43 (designed binder, His-tagged) MIPGGLSEAKPATPEIQEIVDKVKPQLEEKTGETYGKLEAVQYKTQVVVQHPQWHWKGTNYYIKVRAGDNKYMHLKVFKSLVQQRDVWINEDLVLTGYQVDKNKDDELTGF | binds |
| Clone 44 (designed binder, His-tagged) MIPGGLSEAKPATPEIQEIVDKVKPQLEEKTGETYGKLEAVQYKTQVVRTKETKKSWGTNYYIKVRAGDNKYMHLKVFKSLQKIHAIFYVEDLVLTGYQVDKNKDDELTGF | binds |
| Clone 45 (designed binder, His-tagged) MIPGGLSEAKPATPEIQEIVDKVKPQLEEKTGETYGKLEAVQYKTQVVREYPHFQGYGTNYYIKVRAGDNKYMHLKVFKSLILNAGGIRWEDLVLTGYQVDKNKDDELTGF | binds |
| Clone 47 (designed binder, His-tagged) MIPGGLSEAKPATPEIQEIVDKVKPQLEEKTGETYGKLEAVQYKTQVVGVKQTWNWNGTNYYIKVRAGDNKYMHLKVFKSLFGLNDDEPVEDLVLTGYQVDKNKDDELTGF | binds |
| Clone 5 (designed binder, His-tagged) MIPGGLSEAKPATPEIQEIVDKVKPQLEEKTGETYGKLEAVQYKTQVVFLDWKQHWRGTNYYIKVRAGDNKYMHLKVFKSLFNDKHNSTEDLVLTGYQVDKNKDDELTGF | binds |
| Clone 50 (designed binder, His-tagged) MIPGGLSEAKPATPEIQEIVDKVKPQLEEKTGETYGKLEAVQYKTQVVGRQVKWAWTGTNYYIKVRAGDNKYMHLKVFKSLFKQHHNISEEDLVLTGYQVDKNKDDELTGF | binds |
| Clone 51 (designed binder, His-tagged) MIPGGLSEAKPATPEIQEIVDKVKPQLEEKTGETYGKLEAVQYKTQVVSHHASPSHIGTNYYIKVRAGDNKYMHLKVFKSLTTDPNWDVHEDLVLTGYQVDKNKDDELTGF | binds |
| Clone 53 (designed binder, His-tagged) MIPGGLSEAKPATPEIQEIVDKVKPQLEEKTGETYGKLEAVQYKTQVVAWDWLPAYRGTNYYIKVRAGDNKYMHLKVFKSLFKFQNESFAEDLVLTGYQVDKNKDDELTGF | binds |
| Clone 55 (designed binder, His-tagged) MIPGGLSEAKPATPEIQEIVDKVKPQLEEKTGETYGKLEAVQYKTQVVAGWSLPPHLGTNYYIKVRAGDNKYMHLKVFKSLINHAGQKSDEDLVLTGYQVDKNKDDELTGF | binds |
| Clone 57 (designed binder, His-tagged) MIPGGLSEAKPATPEIQEIVDKVKPQLEEKTGETYGKLEAVQYKTQVVELDGDHTWLGTNYYIKVRAGDNKYMHLKVFKSLRQLHRIWYFEDLVLTGYQVDKNKDDELTGF | binds |
| Clone 59 (designed binder, His-tagged) MIPGGLSEAKPATPEIQEIVDKVKPQLEEKTGETYGKLEAVQYKTQVVREPALWHFRGTNYYIKVRAGDNKYMHLKVFKSLTFKVDTWKVEDLVLTGYQVDKNKDDELTGF | binds |

| Binder | binding result |
| --- | --- |
| Clone 6 (designed binder, His-tagged) MIPGGLSEAKPATPEIQEIVDKVKPQLEEKTGETYGKLEAVQYKTQVVLSEAVYIWAGTNYYIKVRAGDNKYMHLKVFKSLNSRWYGPLGEDLVLTGYQVDKNKDDELTGF | binds |
| Clone 60 (designed binder, His-tagged) MIPGGLSEAKPATPEIQEIVDKVKPQLEEKTGETYGKLEAVQYKTQVVPQVQEPWWIGTNYYIKVRAGDNKYMHLKVFKSLYKAYIQGWNEDLVLTGYQVDKNKDDELTGF | binds |
| Clone 61 (designed binder, His-tagged) MIPGGLSEAKPATPEIQEIVDKVKPQLEEKTGETYGKLEAVQYKTQVVPTGTHQWAAGTNYYIKVRAGDNKYMHLKVFKSLWASLESGQNEDLVLTGYQVDKNKDDELTGF | binds |
| Clone 63 (designed binder, His-tagged) MIPGGLSEAKPATPEIQEIVDKVKPQLEEKTGETYGKLEAVQYKTQVVQEYEDQEWAGTNYYIKVRAGDNKYMHLKVFKSLHLWNQQIYREDLVLTGYQVDKNKDDELTGF | binds |
| Clone 64 (designed binder, His-tagged) MIPGGLSEAKPATPEIQEIVDKVKPQLEEKTGETYGKLEAVQYKTQVVIAHIHWKYFGTNYYIKVRAGDNKYMHLKVFKSLHLAKGQWREEDLVLTGYQVDKNKDDELTGF | binds |
| Clone 65 (designed binder, His-tagged) MIPGGLSEAKPATPEIQEIVDKVKPQLEEKTGETYGKLEAVQYKTQVVDYRAIWHWWGTNYYIKVRAGDNKYMHLKVFKSLFHAEGDIWDEDLVLTGYQVDKNKDDELTGF | binds |
| Clone 66 (designed binder, His-tagged) MIPGGLSEAKPATPEIQEIVDKVKPQLEEKTGETYGKLEAVQYKTQVVNLKPDVQGSGTNYYIKVRAGDNKYMHLKVFKSLIVVKRYWYVEDLVLTGYQVDKNKDDELTGF | binds |
| Clone 69 (designed binder, His-tagged) MIPGGLSEAKPATPEIQEIVDKVKPQLEEKTGETYGKLEAVQYKTQVVYKVDNNNYQGTNYYIKVRAGDNKYMHLKVFKSLITWQLNQPREDLVLTGYQVDKNKDDELTGF | binds |
| Clone 7 (designed binder, His-tagged) MIPGGLSEAKPATPEIQEIVDKVKPQLEEKTGETYGKLEAVQYKTQVVRQYYEWSWVGTNYYIKVRAGDNKYMHLKVFKSLFESPTEDNDEDLVLTGYQVDKNKDDELTGF | binds |
| Clone 70 (designed binder, His-tagged) MIPGGLSEAKPATPEIQEIVDKVKPQLEEKTGETYGKLEAVQYKTQVVIEEPSAFWWGTNYYIKVRAGDNKYMHLKVFKSLLRVRHSAYREDLVLTGYQVDKNKDDELTGF | binds |
| Clone 71 (designed binder, His-tagged) MIPGGLSEAKPATPEIQEIVDKVKPQLEEKTGETYGKLEAVQYKTQVVASFPEISWYGTNYYIKVRAGDNKYMHLKVFKSLKNYPKTGVTEDLVLTGYQVDKNKDDELTGF | binds |
| Clone 72 (designed binder, His-tagged) MIPGGLSEAKPATPEIQEIVDKVKPQLEEKTGETYGKLEAVQYKTQVVIHEPEIWWYGTNYYIKVRAGDNKYMHLKVFKSLHKADRQKEREDLVLTGYQVDKNKDDELTGF | binds |
| Clone 73 (designed binder, His-tagged) MIPGGLSEAKPATPEIQEIVDKVKPQLEEKTGETYGKLEAVQYKTQVVDWGWGIPWVGTNYYIKVRAGDNKYMHLKVFKSLWLYGVKRLPEDLVLTGYQVDKNKDDELTGF | binds |
| Clone 74 (designed binder, His-tagged) MIPGGLSEAKPATPEIQEIVDKVKPQLEEKTGETYGKLEAVQYKTQVVRRWELWSFQGTNYYIKVRAGDNKYMHLKVFKSLWQEHTDSVEEDLVLTGYQVDKNKDDELTGF | binds |
| Clone 75 (designed binder, His-tagged) MIPGGLSEAKPATPEIQEIVDKVKPQLEEKTGETYGKLEAVQYKTQVVINQHENFKQGTNYYIKVRAGDNKYMHLKVFKSLHLFHGLWYIEDLVLTGYQVDKNKDDELTGF | binds |
| Clone 76 (designed binder, His-tagged) MIPGGLSEAKPATPEIQEIVDKVKPQLEEKTGETYGKLEAVQYKTQVVHDFTIRYPWGTNYYIKVRAGDNKYMHLKVFKSLEYHVTKRDQEDLVLTGYQVDKNKDDELTGF | binds |
| Clone 78 (designed binder, His-tagged) MIPGGLSEAKPATPEIQEIVDKVKPQLEEKTGETYGKLEAVQYKTQVVDQGWWENWAGTNYYIKVRAGDNKYMHLKVFKSLIWENNLRIHEDLVLTGYQVDKNKDDELTGF | binds |
